Experiments:
[1] = target: T1, HCV Core1-169 (HCV-1, UniProt P26664 1-169); assay: EIA, coated core1-169
T1 construct: also called Solid Phase HCV Core
T1 sequence: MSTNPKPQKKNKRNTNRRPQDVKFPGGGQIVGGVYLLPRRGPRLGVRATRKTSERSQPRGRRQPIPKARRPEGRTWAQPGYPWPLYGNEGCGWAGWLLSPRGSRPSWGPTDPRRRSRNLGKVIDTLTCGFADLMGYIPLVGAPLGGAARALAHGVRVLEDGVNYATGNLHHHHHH

[2] = target: T1, HCV Core1-169; assay: EIA, core captured by anti-domain 1 mAb
[3] = target: HCV Core 134-171-TT peptide (ALRZ-9 peptide) (HCV-1); assay: SPR, captured mAb;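 note: Anti-HCV Core mAbs from hybridoma supernatants held on a rabbit anti-mouse IgG CM5 surface, peptide flowed over 3 min then 4 min dissociation, duplicate concentrations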
[4] = target: T1, HCV Core1-169; assay: sandwich EIA, capture C11-7
[5] = target: T1, HCV Core1-169; assay: sandwich EIA, capture C11-9
[6] = target: T1, HCV Core1-169; assay: sandwich EIA, NC capture mAb; note: test concentration or dose not given here
[7] = target: T1, HCV Core1-169; assay: sandwich EIA, capture 208A-110
[8] = target: T1, HCV Core1-169; assay: sandwich EIA, capture 208A-293
[9] = target: T1, HCV Core1-169; assay: sandwich EIA, capture 208A-557
[10] = target: T1, HCV Core1-169; assay: sandwich EIA, capture 208A-692
[11] = target: T1, HCV Core1-169; assay: sandwich EIA, capture 208B-741
[12] = target: T1, HCV Core1-169; assay: sandwich EIA, capture 208B-1096
[13] = target: T1, HCV Core1-169; assay: sandwich EIA, capture 208A-207-271
[14] = target: T1, HCV Core1-169; assay: sandwich EIA, capture 208B-395-334
[15] = target: T1, HCV Core1-169; assay: sandwich EIA, capture 208B-612-226
[16] = target: HCV Core 134-171-TT peptide (ALRZ-9 peptide) (HCV-1); assay: SPR, captured mAb; remark: listed apart in the source;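 note: Anti-HCV Core mAbs from hybridoma supernatants held on a rabbit anti-mouse IgG CM5 surface, peptide flowed over 3 min then 4 min dissociation, duplicate concentrations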
[17] = target: T1, HCV Core1-169; assay: SPR sandwich, C11-3 capture
[18] = target: T1, HCV Core1-169; assay: SPR sandwich, C11-7 capture
[19] = target: T1, HCV Core1-169; assay: SPR sandwich, C11-9 capture
[20] = target: T1, HCV Core1-169; assay: SPR sandwich, C11-14 capture

B1: HCV 208A-422 (antibody, V domains shown)
VH: DVQLQESGPGLVNPSQSLSLTCSVTGYSITSGYYWIWIQQSPGNKLEWMGYIKYDGGNNYSPSLKNRISIARDTSKNQCFLKLNSVTIEDTATYYCTRGSDSFDYWGQGTTLTVSS
VL: DIVLTQSPASLAVSLGQRAIISCKASQSVSFAGTNLMHWYQQKPGQQPKLLIYRASNLETGVPTRFSGSGSRTDFTLNIHPVEEDDAATYYCQQSREYYTFGGGTKLEIKR
OD (A492) [1]: 1.68 OD
OD (A492) [2]: 0.18 OD

B2: HCV 208B-395 (antibody, V domains shown)
VH: QVQLQQSGAGLAKPGASVKMSCKASGYTFTANKMHWTKQRPGQGLEWIGYIDPSSGYTQYNHKIQDKATLTADTSSSTAYMQLSSLTFEDSAVYYCTNFAYWGQGTLVTVSA
VL: DIVLTQSPATLSVTPGDRVSLSCRASQRIYNYLHWYQQKSHESPRLLIKYASQSISGIPSRFSGSGSGTDFILTINSVETEDFGMYFCQQSNSWPLTFGAGTKLELRR
Kd [3]: 0.36 nM
koff [3]: 0.00047 s⁻¹
kon [3]: 1.3e+06 M⁻¹ s⁻¹
OD492 [4]: 0.89 OD
OD492 [5]: 0.32 OD
OD492 [6]: 0.2 OD
OD492 [7]: 0.21 OD
OD492 [8]: 0.26 OD
OD492 [9]: 0.21 OD
OD492 [10]: 0.15 OD
OD492 [11]: 0.21 OD
OD492 [12]: 0.23 OD
OD492 [13]: 0.2 OD
OD492 [14]: 0.23 OD
OD492 [15]: 0.26 OD

B3: HCV 208B-862 (antibody, V domains shown)
VH: DVQLQESGPGLVKPSQSLSLTCTVTGYSITSDYAWNWIRQFPGNKLEWMGYISYSGTTVYSPSLKSRISITRDTSKNQFFLQLNSVTIEDSATYYCGGNYWGQGTLVTVSA
VL: DVVLTQTPLSLPLSLGDQASISCRSSQTLLHSDGDTYLHWYLQKPGQSPKLLIYKLSNRFSGVPDRFSGSGSGTDFTLKISRVEAEDLGVYFCSQSTHVPYTFGGGTKLEIKR
Kd [16]: 0.07 nM
koff [16]: 0.0001 s⁻¹
kon [16]: 1.4e+06 M⁻¹ s⁻¹
OD (A492) [1]: 0.49 OD
expected % binding [17]: 11.2%
expected % binding [18]: 15.2%
expected % binding [19]: 8.9%
expected % binding [20]: 12.6%
OD (A492) [2]: 1.07 OD

Source: US9371374 (AbbVie / Abbott, dated 2016)
